# Reference: publication PMC3927786 (Chemistry & biology, 2013)
# Target: the molecule itself
# Experiment: SEC
protein,measurement,value
"pimeloyl-CoA ligase (BioW) (enzyme, UniProt P53559 1-259, looked up) MMQEETFYSVRMRASMNGSHEDGGKHISGGERLIPFHEMKHTVNALLEKGLSHSRGKPDFMQIQFEEVHESIKTIQPLPVHTNEVSCPEEGQKLARLLLEKEGVSRDVIEKAYEQIPEWSDVRGAVLFDIHTGKRMDQTKEKGVRVSRMDWPDANFEKWALHSHVPAHSRIKEALALASKVSRHPAVVAELCWSDDPDYITGYVAGKKMGYQRITAMKEYGTEEGCRVFFIDGSNDVNTYIHDLEKQPILIEWEEDHDS",stoichiometry N,2
